PMC11993666 (Nature Communications, 2025)

Columns and labels:
[1] = target: hCD40 (as used in SPR) (human) (UniProt P25942); test: SPR
[2] = target: hCD40 expressed on Jurkat cells (human, UniProt P25942); test: cell-based or functional assay
Sequence of hCD40 expressed on Jurkat cells (P25942 21-277): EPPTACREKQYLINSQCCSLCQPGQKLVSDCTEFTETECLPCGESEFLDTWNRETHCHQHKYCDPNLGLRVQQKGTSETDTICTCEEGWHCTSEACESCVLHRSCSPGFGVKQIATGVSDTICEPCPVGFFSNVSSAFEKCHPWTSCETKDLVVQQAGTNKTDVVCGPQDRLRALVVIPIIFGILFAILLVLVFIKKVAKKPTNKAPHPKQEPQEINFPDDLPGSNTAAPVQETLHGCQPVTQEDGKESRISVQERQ

Sequence of ChiLob7/4 hIgG2 wild type (P01859 whole entry, looked up): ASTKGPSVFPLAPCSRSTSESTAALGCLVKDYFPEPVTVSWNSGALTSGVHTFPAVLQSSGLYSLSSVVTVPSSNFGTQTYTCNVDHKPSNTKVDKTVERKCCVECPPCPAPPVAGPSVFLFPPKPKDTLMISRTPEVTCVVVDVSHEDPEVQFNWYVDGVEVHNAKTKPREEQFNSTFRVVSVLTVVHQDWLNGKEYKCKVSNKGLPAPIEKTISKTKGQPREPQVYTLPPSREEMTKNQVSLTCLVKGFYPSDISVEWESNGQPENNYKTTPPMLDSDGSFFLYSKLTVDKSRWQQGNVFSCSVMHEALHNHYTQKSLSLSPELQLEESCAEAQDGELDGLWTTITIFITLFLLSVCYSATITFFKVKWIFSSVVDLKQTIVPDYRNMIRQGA
Sequence of hCD40 (as used in SPR) (human) (P25942 21-277): as the sequence (P25942 21-277) above

Molecule	Kd [1] [nM]	koff [1] [s⁻¹]	EC50 of NF-κB activation (percentage of GFP+ cells, flow cytometry, 24 h) in NF-κB/Jurkat/GFP reporter cells expressing hCD40 [2] [ng/mL]
ChiLob7/4 hIgG2 C232S + K228C κC214S (cross-over + K228C) (antibody, V domains shown) VH: EVQLQQSGPDLVKPGASVKISCKTSGYTFTEYIMHWVKQSHGKSLEWIGGIIPNNGGTSYNQKFKDKATMTVDKSSSTGYMELRSLTSEDSAVYYCTRREVYGRNYYALDYWGQGTLVTVSS VL: DIQMTQTTSSLSASLGDRVTITCSASQGINNYLNWYQQKPDGTVKLLIYYTSSLHSGVPSRFSGSGSGTDYSLTISNLEPEDIATYYCQQYSNLPYTFGGGTKLEIK	–	–	1.55
ChiLob7/4 hIgG2 C232S + T222C κE123C + κC214S (cross-over + T222C κE123C) (antibody, V domains shown) VH: EVQLQQSGPDLVKPGASVKISCKTSGYTFTEYIMHWVKQSHGKSLEWIGGIIPNNGGTSYNQKFKDKATMTVDKSSSTGYMELRSLTSEDSAVYYCTRREVYGRNYYALDYWGQGTLVTVSS VL: DIQMTQTTSSLSASLGDRVTITCSASQGINNYLNWYQQKPDGTVKLLIYYTSSLHSGVPSRFSGSGSGTDYSLTISNLEPEDIATYYCQQYSNLPYTFGGGTKLEIK	–	–	1.55

Now from value to molecule:

Kd [1] [nM]	koff [1] [s⁻¹]	EC50 of NF-κB activation (percentage of GFP+ cells, flow cytometry, 24 h) in NF-κB/Jurkat/GFP reporter cells expressing hCD40 [2] [ng/mL]	Molecule
1.97	0.000164	–	ChiLob7/4 hIgG2 wild type (from UniProt P01859)
–	–	4.59	ChiLob7/4 hIgG2 C232S κC214S (cross-over) (antibody, V domains shown) VH: EVQLQQSGPDLVKPGASVKISCKTSGYTFTEYIMHWVKQSHGKSLEWIGGIIPNNGGTSYNQKFKDKATMTVDKSSSTGYMELRSLTSEDSAVYYCTRREVYGRNYYALDYWGQGTLVTVSS VL: DIQMTQTTSSLSASLGDRVTITCSASQGINNYLNWYQQKPDGTVKLLIYYTSSLHSGVPSRFSGSGSGTDYSLTISNLEPEDIATYYCQQYSNLPYTFGGGTKLEIK
